Measured values taken from FireProtDB (doi:10.1021/bi048926x).
“And” between values parts separate entries of the source, which are not always exact repeats. Equal entries are not always repeated.

Details: Pseudomonas aeruginosa (strain ATCC 15692 / DSM 22644 / CIP 104116 / JCM 14847 / LMG 12228 / 1C / PRS 101 / PAO1), pH 7, Thermal, reversible: No, whole UniProt chain shown

B1: Azurin wild type, P00282 (protein)
chain: MLRKLAAVSLLSLLSAPLLAAECSVDIQGNDQMQFNTNAITVDKSCKQFTVNLSHPGNLPKNVMGHNWVLSTAADMQGVVTDGMASGLDKDYLKPDDSRVIAHTKLIGSGEKDSVTFDVSKLKEGEQYMFFCTFPGHSALMKGTLTLK
Tm (Absorbance, Phosphate 10 mM): 78 °C
unfolding enthalpy (calorimetric) (DSC, Potassium phosphate 100 mM): 141 kcal/mol and 130 kcal/mol and 136 kcal/mol
